The values that follow are results of earlier work, collected in publication PMC3869910.

The series deals with alpha-bungarotoxin (Bungarus multicinctus) (UniProt P60615).
Sequence of UniProt P60615 (P60615 22-95): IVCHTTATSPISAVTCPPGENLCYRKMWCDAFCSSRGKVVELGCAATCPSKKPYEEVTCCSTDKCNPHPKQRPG

In general, Kd refers to the concentration at which binding is half-saturated. Regarding “nicotinic acetylcholine receptor alpha1 (y-α1-ECD) ECD (from UniProt P02708)”, the Kd is 5 nM.
